This note sets out measurements from the domain aggregation screens of Martell et al. (2025).

The series can be described thus: soluble fraction after stress (log2 fold change); higher = more stays soluble; pooled small domains, quantitative proteomics. The conditions noted are these: stress: pH 4. In short, it runs like this:
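With high-throughput quantitative proteomics, pooled custom libraries of small protein domains were measured after pH 4 stress. Each domain's soluble amount after the stress gives a fold change taken as aggregation propensity. Higher log2 values mean more of the domain stayed soluble.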

Regarding “HMYSDDNKSILNLIDNLFNKENIKIDINAKKLLSNYLGVDRLVTKGEIEKAILFAGTKKHLSIEDISAFLS”, the “soluble fraction (log2)” value was -0.992.

For “HMYSFPHQLLKLRTEKQLSQAELATRLFVSRQAVSKWENGDAEPSIDKLILLAKVFNVSLDRLILGT”, the “soluble fraction (log2)” value came to 0.18.

Consider “HMYSIDNPPDWLKNLPKGAIRIGVEVFNQVLSKADDEDRARMAAWSAIKAKYEKADDGQWQPKAA”, for which the “soluble fraction (log2)” value was found to be 0.221.

On to “HMYSNDEIVNYLKNYIFDNFNLNELSDEELEEKIAELVQQQFAGQLLSLDEKVKLVNQVYSSIR”, for which the “soluble fraction (log2)” value is -0.139.

As for “HMYSRQRDLILKALRENVVHPTADFIYTVLKEKEPNLSLATVYRNLNLLANEGIIRKIEGLDGVAHFDH”, the “soluble fraction (log2)” value was 0.059.

Consider “HMYSVVGKKGIVIEDINYSTGTGQIKSEGEVWSAKTNEQINIPKGTEIEIESIDGVKVIVKPL”, for which the “soluble fraction (log2)” value turned out to be 0.221.

For “HMYTDGVPALTDLKKESKPGRRQYVGVEDIPKVLGGLGITILSTSKGLMSGHQAKKKNIGGELIASV”, the “soluble fraction (log2)” value was -0.0153.

As to “HMYTEIDDVKDLLSKIPSVNKLTTADRGMVQAARNAYDALDEDQKLYITIADVEKFNAAVEWMEEH”, the “soluble fraction (log2)” value was -0.523.

“HMYTVRDGDTVFGILNRFGVSLDELLSLNPELSNGLKAGMVLKIK”: the “soluble fraction (log2)” value was -1.13.

In the case of “HMYVADVVGMGIKDALYILENQGLRVVFTGKGVVKNQSIAVGEKIIKGEKIVLML”, the “soluble fraction (log2)” value is -0.723.

Consider “HMYVQDPVDRLVLESALRLLREQEREIIFLHLVAGLKHREIAGLLHLPLSTVLSGYRRALTKMKSYLEE”, for which the “soluble fraction (log2)” value came to 0.0239.

In the case of “HMYVTGETIRHLRTQRRMTQEQLAETLGVTGKAVSKWETGRGFPDMSLLEPLARALRISVPELLSGE”, the “soluble fraction (log2)” value stood at 0.0292.

Consider “HMYYNQGILKSGASVYGEPGITSSHRLEIPSGSFVDIVQEKDEWVYYEKNHVNHGWVLRENIYIPSL”, for which the “soluble fraction (log2)” value was found to be 0.23.

Turning to “HMYYQEDHDIILEETEDVTDPYLITLRGYIFLNNLQWVAARQAFLSADERFRHRHYSALIAPIMQTIDNAA”, the “soluble fraction (log2)” value was -1.49.

In the case of “HMYYSERILTILEERGISPYRVSKETGISQSVFSNWKRKPTSRITAANLERLADYLGLPVEVLTG”, the “soluble fraction (log2)” value was found to be 0.134.
